These results are taken from publication PMC2148453.

Test [1] deals with microtubules (taxol-stabilised, polymerised from PC-tubulin; tubulin alpha-beta heterodimer) (UniProt P02550). As to the kind of experiment: cryo-EM structure.
Test [2] shares this target. As to the kind of experiment: co-sedimentation.

Sequence of UniProt P02550 (P02550 whole entry, looked up, one chain of several): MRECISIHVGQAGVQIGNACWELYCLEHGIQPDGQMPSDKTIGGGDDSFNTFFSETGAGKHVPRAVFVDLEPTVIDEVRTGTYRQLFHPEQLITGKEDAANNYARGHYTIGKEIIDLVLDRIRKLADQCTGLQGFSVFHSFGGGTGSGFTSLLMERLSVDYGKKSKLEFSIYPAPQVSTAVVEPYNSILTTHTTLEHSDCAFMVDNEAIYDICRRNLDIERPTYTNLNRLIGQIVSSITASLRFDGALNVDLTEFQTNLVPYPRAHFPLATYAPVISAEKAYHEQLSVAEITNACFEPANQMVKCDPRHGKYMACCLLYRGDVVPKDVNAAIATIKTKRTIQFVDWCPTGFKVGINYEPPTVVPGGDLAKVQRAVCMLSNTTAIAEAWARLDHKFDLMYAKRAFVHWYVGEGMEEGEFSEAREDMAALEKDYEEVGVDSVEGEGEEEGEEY

The substance “rat kinesin construct rK354 (from UniProt P56536 1-354) (domain or fragment)” displayed a stoichiometry N (kinesin head per tubulin heterodimer) in test [1] of 1.

By Kd is commonly meant the concentration at which binding is half-saturated. A higher Kd goes with a looser complex. Take “rat kinesin construct rK379 (from UniProt P56536 1-379) (domain or fragment)”: in test [2], the dissociation constant Kd came to 400 nM and the stoichiometry N (kinesin heads per tubulin dimer) amounted to 1.1. In test [1], the stoichiometry N (head per tubulin dimer) is 1 and the stoichiometry N (head per tubulin heterodimer) worked out at 1.
